Measured values reported in paper PMC9482650, “Quantitative fragmentomics allow affinity mapping of interactomes” (Nature Communications, 2022).

How the values were obtained:
Assay in all cases: holdup assay
Design in all cases: key: below the threshold = too weak to quantify, mostly under pKd 3.1 to 4
AHNAK1, Q09666 = target: AHNAK1, Q09666
APBA1_1, Q02410 = target: T1, APBA1_1, Q02410
T1 sequence (Q02410 651-752, limits assumed, looked up): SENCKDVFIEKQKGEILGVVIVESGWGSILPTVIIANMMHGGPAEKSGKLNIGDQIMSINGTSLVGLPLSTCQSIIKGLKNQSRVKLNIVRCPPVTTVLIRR

APBA2_1, Q99767 = target: T2, APBA2_1, Q99767
T2 sequence (Q99767 563-664, limits assumed, looked up): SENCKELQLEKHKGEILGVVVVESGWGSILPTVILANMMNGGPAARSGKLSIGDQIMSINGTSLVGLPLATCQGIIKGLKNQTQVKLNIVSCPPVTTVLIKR

ARHGAP21, Q5T5U3 = target: T3, ARHGAP21, Q5T5U3
T3 sequence (Q5T5U3 45-169, limits assumed, looked up): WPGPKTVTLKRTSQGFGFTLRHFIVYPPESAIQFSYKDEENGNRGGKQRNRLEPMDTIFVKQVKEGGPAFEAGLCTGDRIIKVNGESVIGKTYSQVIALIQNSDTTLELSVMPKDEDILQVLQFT

DLG1_3, Q12959 = target: DLG1_3, Q12959
Sequence of DLG1_3, Q12959 (Q12959 457-571): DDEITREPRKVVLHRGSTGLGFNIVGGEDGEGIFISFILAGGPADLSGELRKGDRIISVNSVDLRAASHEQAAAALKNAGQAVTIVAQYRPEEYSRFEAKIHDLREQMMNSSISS

DLG5_1, Q8TDM6 = target: DLG5_1, Q8TDM6
Sequence of DLG5_1, Q8TDM6 (Q8TDM6 617-713): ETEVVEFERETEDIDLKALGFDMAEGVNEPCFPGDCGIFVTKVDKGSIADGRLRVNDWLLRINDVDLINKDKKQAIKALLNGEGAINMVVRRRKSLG

FRMPD2_2, Q68DX3 = target: FRMPD2_2, Q68DX3
Sequence of FRMPD2_2, Q68DX3 (Q68DX3 944-1038): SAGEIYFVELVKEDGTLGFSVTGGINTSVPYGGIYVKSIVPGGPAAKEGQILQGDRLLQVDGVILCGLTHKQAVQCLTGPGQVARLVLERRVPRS

GOPC, Q9HD26 = target: GOPC, Q9HD26
GRASP, Q7Z6J2 = target: GRASP, Q7Z6J2
Sequence of GRASP, Q7Z6J2 (Q7Z6J2 96-193): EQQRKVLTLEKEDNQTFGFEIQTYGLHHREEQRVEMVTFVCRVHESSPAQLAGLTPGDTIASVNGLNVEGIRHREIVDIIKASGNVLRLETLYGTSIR

GRID2IP_1, A4D2P6 = target: GRID2IP_1, A4D2P6
Sequence of GRID2IP_1, A4D2P6 (A4D2P6 1-87): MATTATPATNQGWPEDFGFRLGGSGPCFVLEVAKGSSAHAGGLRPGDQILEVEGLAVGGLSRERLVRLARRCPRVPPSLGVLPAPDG

IL16_1, Q14005 = target: IL16_1, Q14005
Sequence of IL16_1, Q14005 (Q14005 210-306): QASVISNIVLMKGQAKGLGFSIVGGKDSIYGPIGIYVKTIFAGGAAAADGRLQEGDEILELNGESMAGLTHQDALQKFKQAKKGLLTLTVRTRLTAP

Inadl_9, Q8NI35 = target: Inadl_9, Q8NI35
Sequence of Inadl_9, Q8NI35 (Q8NI35 1530-1615): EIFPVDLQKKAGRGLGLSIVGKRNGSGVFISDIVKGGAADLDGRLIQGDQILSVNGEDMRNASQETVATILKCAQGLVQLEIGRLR

LAP2, Q96RT1 = target: LAP2, Q96RT1
Sequence of LAP2, Q96RT1 (Q96RT1 other isoform, or with tags, fused parts or gaps): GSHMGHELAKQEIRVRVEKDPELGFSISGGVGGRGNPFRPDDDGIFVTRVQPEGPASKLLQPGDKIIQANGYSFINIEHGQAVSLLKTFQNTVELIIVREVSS

LNX1_1, Q8TBB1 = target: LNX1_1, Q8TBB1
Sequence of LNX1_1, Q8TBB1 (Q8TBB1 261-371): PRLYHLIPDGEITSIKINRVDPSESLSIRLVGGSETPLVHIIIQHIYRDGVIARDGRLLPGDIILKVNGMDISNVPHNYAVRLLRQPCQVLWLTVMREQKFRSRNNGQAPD

MAGI2_4, Q86UL8 = target: MAGI2_4, Q86UL8
Sequence of MAGI2_4, Q86UL8 (Q86UL8 772-865): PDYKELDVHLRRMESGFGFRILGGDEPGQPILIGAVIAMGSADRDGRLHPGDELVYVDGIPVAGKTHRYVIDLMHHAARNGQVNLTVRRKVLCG

MAGI3_2, Q5TCQ9 = target: MAGI3_2, Q5TCQ9
Sequence of MAGI3_2, Q5TCQ9 (Q5TCQ9 398-503): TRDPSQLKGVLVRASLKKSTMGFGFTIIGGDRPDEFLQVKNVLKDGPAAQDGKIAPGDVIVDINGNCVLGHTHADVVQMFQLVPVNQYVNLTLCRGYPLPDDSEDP

MPDZ_10, O75970 = target: T4, MPDZ_10, O75970
T4 sequence (O75970 1624-1722, limits assumed, looked up): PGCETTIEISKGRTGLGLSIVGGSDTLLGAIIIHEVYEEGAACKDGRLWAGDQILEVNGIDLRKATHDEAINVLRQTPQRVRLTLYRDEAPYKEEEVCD

MPDZ_12, O75970 = target: T5, MPDZ_12, O75970
T5 sequence (O75970 1857-1958, limits assumed, looked up): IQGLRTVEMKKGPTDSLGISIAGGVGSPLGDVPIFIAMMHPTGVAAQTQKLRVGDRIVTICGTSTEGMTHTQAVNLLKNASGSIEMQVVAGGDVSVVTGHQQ

MPDZ_5, O75970 = target: T6, MPDZ_5, O75970
T6 sequence (O75970 695-796, limits assumed, looked up): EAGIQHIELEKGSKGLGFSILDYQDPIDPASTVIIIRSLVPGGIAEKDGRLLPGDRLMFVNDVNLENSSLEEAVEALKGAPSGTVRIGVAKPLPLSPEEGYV

NHERF4_1, Q86UT5-2 = target: NHERF4_1, Q86UT5-2
Sequence of NHERF4_1, Q86UT5-2 (Q86UT5 other isoform, or with tags, fused parts or gaps): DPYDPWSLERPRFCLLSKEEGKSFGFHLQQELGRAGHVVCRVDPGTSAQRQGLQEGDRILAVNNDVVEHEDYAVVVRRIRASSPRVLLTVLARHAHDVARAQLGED

NHERF4_2, Q86UT5 = target: NHERF4_2, Q86UT5
Sequence of NHERF4_2, Q86UT5 (Q86UT5 220-308): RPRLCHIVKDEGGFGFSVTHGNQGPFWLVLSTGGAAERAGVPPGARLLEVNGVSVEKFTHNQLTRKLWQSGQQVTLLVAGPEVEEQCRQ

PARD3B_1, Q8TEW8 = target: T7, PARD3B_1, Q8TEW8
T7 sequence (Q8TEW8 196-299, limits assumed, looked up): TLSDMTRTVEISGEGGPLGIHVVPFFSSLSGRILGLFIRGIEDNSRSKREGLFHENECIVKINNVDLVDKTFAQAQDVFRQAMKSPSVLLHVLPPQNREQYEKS

RADIL, Q96JH8 = target: T8, RADIL, Q96JH8
T8 sequence (Q96JH8 971-1071, limits assumed, looked up): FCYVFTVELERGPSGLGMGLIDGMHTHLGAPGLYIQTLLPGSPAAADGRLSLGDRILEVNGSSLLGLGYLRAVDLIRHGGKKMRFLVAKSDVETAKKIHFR

RAPGEF6, Q8TEU7 = target: T9, RAPGEF6, Q8TEU7
T9 sequence (Q8TEU7 525-625, limits assumed, looked up): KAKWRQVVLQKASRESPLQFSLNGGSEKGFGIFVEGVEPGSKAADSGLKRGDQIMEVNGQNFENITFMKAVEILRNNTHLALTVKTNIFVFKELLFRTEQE

SCRIB_1, Q14160 = target: SCRIB_1, Q14160
Sequence of SCRIB_1, Q14160 (Q14160 718-814): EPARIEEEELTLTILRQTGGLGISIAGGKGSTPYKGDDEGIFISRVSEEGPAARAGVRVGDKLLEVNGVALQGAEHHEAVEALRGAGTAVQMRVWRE

SHANK1, Q9Y566 = target: T10, SHANK1, Q9Y566
T10 sequence (Q9Y566 658-767, limits assumed, looked up): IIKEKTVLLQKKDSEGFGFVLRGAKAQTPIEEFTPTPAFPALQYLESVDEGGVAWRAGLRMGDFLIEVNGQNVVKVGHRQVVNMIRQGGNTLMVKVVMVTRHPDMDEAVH

[1] = plain residues with an end cap or a label only (N-terminal biotin on a linker: ttds)
[2] = plain residues with an end cap or a label only (N-terminal biotin on a linker: gsgsgs; C-terminal amide)

Measured: pKd

Sequence of AHNAK1, Q09666 (Q09666 4-100): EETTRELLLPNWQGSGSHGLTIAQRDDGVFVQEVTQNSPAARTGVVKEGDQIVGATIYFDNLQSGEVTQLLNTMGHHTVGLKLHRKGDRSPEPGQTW

SGSRPSATVV [HPV73-E6, Q82005]
4.27: RADIL, Q96JH8; [1]
3.53: MPDZ_5, O75970; [1]
3.59: GOPC, Q9HD26; [1] | Inadl_9, Q8NI35; [1]
4.91: MAGI3_2, Q5TCQ9; [1]
below the threshold: AHNAK1, Q09666; [1] | APBA1_1, Q02410; [1] | APBA2_1, Q99767; [1] | ARHGAP21, Q5T5U3; [1] | DLG1_3, Q12959; [1] | DLG5_1, Q8TDM6; [1] | FRMPD2_2, Q68DX3; [1] | GRID2IP_1, A4D2P6; [1] | IL16_1, Q14005; [1] | LAP2, Q96RT1; [1] | MPDZ_12, O75970; [1] | NHERF4_1, Q86UT5-2; [1] | NHERF4_2, Q86UT5; [1] | PARD3B_1, Q8TEW8; [1] | SCRIB_1, Q14160; [1] | SHANK1, Q9Y566; [1]
3.57: RAPGEF6, Q8TEU7; [1]
3.8: GRASP, Q7Z6J2; [1]
3.74: LNX1_1, Q8TBB1; [1] | MPDZ_10, O75970; [1]
4.49: MAGI2_4, Q86UL8; [1]

RPLPRKVSQL [DOCK4, Q8N1I0]
4.69: MAGI3_2, Q5TCQ9; [1]
3.84: DLG1_3, Q12959; [1]
4.32: NHERF4_1, Q86UT5-2; [1]
below the threshold: AHNAK1, Q09666; [1] | APBA1_1, Q02410; [1] | APBA2_1, Q99767; [1] | ARHGAP21, Q5T5U3; [1] | DLG5_1, Q8TDM6; [1] | FRMPD2_2, Q68DX3; [1] | GRID2IP_1, A4D2P6; [1] | IL16_1, Q14005; [1] | Inadl_9, Q8NI35; [1] | LNX1_1, Q8TBB1; [1] | MAGI2_4, Q86UL8; [1] | MPDZ_10, O75970; [1] | MPDZ_12, O75970; [1] | MPDZ_5, O75970; [1] | NHERF4_2, Q86UT5; [1] | PARD3B_1, Q8TEW8; [1] | RADIL, Q96JH8; [1] | RAPGEF6, Q8TEU7; [1] | SCRIB_1, Q14160; [1] | SHANK1, Q9Y566; [1]
3.93: GRASP, Q7Z6J2; [1]
4.03: GOPC, Q9HD26; [1]
3.73: LAP2, Q96RT1; [1]

YGIVQETTFDLGGDIH [MLLT4_int, P55196]
below the threshold: AHNAK1, Q09666; [2] | APBA1_1, Q02410; [2] | APBA2_1, Q99767; [2] | ARHGAP21, Q5T5U3; [2] | DLG1_3, Q12959; [2] | DLG5_1, Q8TDM6; [2] | FRMPD2_2, Q68DX3; [2] | GOPC, Q9HD26; [2] | GRASP, Q7Z6J2; [2] | GRID2IP_1, A4D2P6; [2] | IL16_1, Q14005; [2] | Inadl_9, Q8NI35; [2] | LAP2, Q96RT1; [2] | LNX1_1, Q8TBB1; [2] | MAGI2_4, Q86UL8; [2] | MAGI3_2, Q5TCQ9; [2] | MPDZ_10, O75970; [2] | MPDZ_12, O75970; [2] | MPDZ_5, O75970; [2] | NHERF4_1, Q86UT5-2; [2] | NHERF4_2, Q86UT5; [2] | PARD3B_1, Q8TEW8; [2] | RADIL, Q96JH8; [2] | RAPGEF6, Q8TEU7; [2] | SHANK1, Q9Y566; [2]
4.3: SCRIB_1, Q14160; [2]

FHPLGADSQV [SLC2A1, P11166]
3.48: LAP2, Q96RT1; [1]
4.02: SCRIB_1, Q14160; [1]
below the threshold: AHNAK1, Q09666; [1] | APBA1_1, Q02410; [1] | APBA2_1, Q99767; [1] | ARHGAP21, Q5T5U3; [1] | DLG1_3, Q12959; [1] | DLG5_1, Q8TDM6; [1] | FRMPD2_2, Q68DX3; [1] | GOPC, Q9HD26; [1] | GRASP, Q7Z6J2; [1] | GRID2IP_1, A4D2P6; [1] | Inadl_9, Q8NI35; [1] | LNX1_1, Q8TBB1; [1] | MAGI2_4, Q86UL8; [1] | MAGI3_2, Q5TCQ9; [1] | MPDZ_10, O75970; [1] | MPDZ_12, O75970; [1] | MPDZ_5, O75970; [1] | NHERF4_1, Q86UT5-2; [1] | NHERF4_2, Q86UT5; [1] | PARD3B_1, Q8TEW8; [1] | RADIL, Q96JH8; [1] | RAPGEF6, Q8TEU7; [1] | SHANK1, Q9Y566; [1]
3.51: IL16_1, Q14005; [1]

VDFPPKESSL [ACVR2A, P27037]
3.35: NHERF4_1, Q86UT5-2; [1]
3.45: GOPC, Q9HD26; [1]
below the threshold: AHNAK1, Q09666; [1] | APBA1_1, Q02410; [1] | APBA2_1, Q99767; [1] | ARHGAP21, Q5T5U3; [1] | DLG5_1, Q8TDM6; [1] | FRMPD2_2, Q68DX3; [1] | GRID2IP_1, A4D2P6; [1] | IL16_1, Q14005; [1] | Inadl_9, Q8NI35; [1] | LAP2, Q96RT1; [1] | LNX1_1, Q8TBB1; [1] | MAGI2_4, Q86UL8; [1] | MPDZ_10, O75970; [1] | MPDZ_12, O75970; [1] | MPDZ_5, O75970; [1] | NHERF4_2, Q86UT5; [1] | PARD3B_1, Q8TEW8; [1] | RADIL, Q96JH8; [1] | RAPGEF6, Q8TEU7; [1] | SHANK1, Q9Y566; [1]
3.83: SCRIB_1, Q14160; [1]
3.47: GRASP, Q7Z6J2; [1]
4.11: DLG1_3, Q12959; [1]
3.3: MAGI3_2, Q5TCQ9; [1]
